Molecular target: human placental moesin (human, UniProt P26038 1-577)
Assay: far-Western, overlay or dot blot

- binding result: binds
B1: human moesin N-ERMAD (amino acids 1–296) (domain or fragment, UniProt P26038 1-296, looked up)
chain: MPKTISVRVTTMDAELEFAIQPNTTGKQLFDQVVKTIGLREVWFFGLQYQDTKGFSTWLKLNKKVTAQDVRKESPLLFKFRAKFYPEDVSEELIQDITQRLFFLQVKEGILNDDIYCPPETAVLLASYAVQSKYGDFNKEVHKSGYLAGDKLLPQRVLEQHKLNKDQWEERIQVWHEEHRGMLREDAVLEYLKIAQDLEMYGVNYFSIKNKKGSELWLGVDALGLNIYEQNDRLTPKIGFPWSEIRNISFNDKKFVIKPIDKKAPDFVFYAPRLRINKRILALCMGNHELYMRRRK
modifications: biotin (only where used as probe in blot overlays; site not stated)

Source: article PMC2139813 (The Journal of Cell Biology, 1997)
